This note sets out measurements from patent publication US20250250355A1 (BIOSION, published 2025).

Usually EC50 stands for the midpoint of the concentration-response curve. For orientation: IC50 means the concentration that inhibits the measured activity by half. Read a low IC50 as greater potency. As usually defined, the Kd is the constant that tells how readily two partners part at equilibrium. A word on the koff: it is a measure of how fast the partners let go of each other. A high value points to fast dissociation. Usually kon stands for the second-order rate constant of association. A high value points to faster complex formation.

Experiment [1] has as its target human SIRPα-isoform 2-his protein (human). Kind of experiment: indirect ELISA on coated human SIRPα-isoform 2-his, OD(450-630). For orientation: In an ELISA, binding on a coated surface is turned into a signal by an enzyme label.
Experiment [2] concerns the target T1, full length human SIRPγ endogenously expressed on Jurkat cells (human, UniProt Q9P1W8 29-387).
T1 construct: whole, on cells; also called human SIRPγ expressed on Jurkat cells
Put plainly: cell based binding FACS on Jurkat cells (endogenous human SIRPγ), MFI; curve flat near MFI 0 (see non_binding).

In experiment [3] the target is T2, human SIRPα-his protein (human, UniProt P78324 31-370). Kind of experiment: competitive ELISA on coated human SIRPα-his; blocked ligand: biotin-labeled human CD47-his, OD(450-630).
T2 sequence (P78324 other isoform, or with tags, fused parts or gaps limits assumed): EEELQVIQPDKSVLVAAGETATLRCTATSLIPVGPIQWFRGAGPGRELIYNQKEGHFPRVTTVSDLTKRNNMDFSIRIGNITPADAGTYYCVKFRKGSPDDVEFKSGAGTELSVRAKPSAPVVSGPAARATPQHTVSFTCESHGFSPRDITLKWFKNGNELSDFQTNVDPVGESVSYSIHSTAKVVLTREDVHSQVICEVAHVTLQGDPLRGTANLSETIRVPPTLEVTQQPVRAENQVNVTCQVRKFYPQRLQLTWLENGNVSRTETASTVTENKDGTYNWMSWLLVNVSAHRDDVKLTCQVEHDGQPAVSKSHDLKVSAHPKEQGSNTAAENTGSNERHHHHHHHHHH
The target of experiment [4] is T3, cynomolgus SIRPα-his protein (cynomolgus).
T3 construct: also called Cyno SIRPα-his; monkey SIRPα
T3 chain: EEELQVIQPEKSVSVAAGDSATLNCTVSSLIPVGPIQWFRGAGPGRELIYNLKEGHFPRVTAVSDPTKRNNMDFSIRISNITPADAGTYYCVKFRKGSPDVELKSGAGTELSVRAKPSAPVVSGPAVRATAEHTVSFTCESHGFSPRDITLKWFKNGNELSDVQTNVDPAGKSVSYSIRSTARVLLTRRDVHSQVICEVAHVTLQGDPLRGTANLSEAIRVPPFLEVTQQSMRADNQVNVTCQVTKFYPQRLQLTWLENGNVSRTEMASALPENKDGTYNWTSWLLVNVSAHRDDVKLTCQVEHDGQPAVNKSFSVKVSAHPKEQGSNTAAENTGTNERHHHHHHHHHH
Kind of experiment: indirect ELISA on coated cynomolgus SIRPα-his, OD(450-630); curve rises only above about 3 nM, to OD about 0.9 at the last point, no plateau.

In experiment [5] the target is T4, full length human SIRPα on cell membranes (HEK293-SIRPα cells; 293F-SIRPα cells) (human, UniProt P78324 31-504).
T4 construct: whole, on cells; also called cell surface human SIRPα; cell surface SIRPα
T4 sequence (P78324 31-504): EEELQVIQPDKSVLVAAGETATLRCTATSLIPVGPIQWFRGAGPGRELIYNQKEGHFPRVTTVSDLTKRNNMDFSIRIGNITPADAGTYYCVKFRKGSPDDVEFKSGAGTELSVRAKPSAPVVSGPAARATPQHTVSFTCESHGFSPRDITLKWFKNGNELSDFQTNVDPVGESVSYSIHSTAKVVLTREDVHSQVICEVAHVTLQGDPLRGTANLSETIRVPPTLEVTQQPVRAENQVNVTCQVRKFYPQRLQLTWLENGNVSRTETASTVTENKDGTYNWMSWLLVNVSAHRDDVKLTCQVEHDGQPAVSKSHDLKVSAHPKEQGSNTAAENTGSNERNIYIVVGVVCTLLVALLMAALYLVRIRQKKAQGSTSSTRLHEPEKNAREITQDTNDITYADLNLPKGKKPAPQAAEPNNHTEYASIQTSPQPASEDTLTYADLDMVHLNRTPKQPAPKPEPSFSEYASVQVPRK
Kind of experiment: cell based blocking FACS on 293F-SIRPα cells; blocked ligand: biotin-labeled human CD47-Fc, MFI.

Experiment [6] has as its target T5, recombinant human SIRPα-Fc protein (human, biotin-labeled (sites not given)).
T5 construct: also called biotin-labeled human SIRPα-Fc protein
Put plainly: capture ELISA, antibody captured on anti-mouse IgG F(ab')2, biotin-labeled human SIRPα-Fc in solution, OD(450-630).

Experiment [7] addresses T4, full length human SIRPα on cell …. Kind of experiment: cell based binding FACS on HEK293-SIRPα cells, MFI.
The target in experiment [8] is T6, full length human SIRPβ on cell membranes (HEK293-SIRPβ cells; 293F cells expressing human SIRPβ) (human, UniProt O00241 30-398).
T6 construct: whole, on cells; also called cell surface human SIRPβ
T6 sequence (O00241 30-398): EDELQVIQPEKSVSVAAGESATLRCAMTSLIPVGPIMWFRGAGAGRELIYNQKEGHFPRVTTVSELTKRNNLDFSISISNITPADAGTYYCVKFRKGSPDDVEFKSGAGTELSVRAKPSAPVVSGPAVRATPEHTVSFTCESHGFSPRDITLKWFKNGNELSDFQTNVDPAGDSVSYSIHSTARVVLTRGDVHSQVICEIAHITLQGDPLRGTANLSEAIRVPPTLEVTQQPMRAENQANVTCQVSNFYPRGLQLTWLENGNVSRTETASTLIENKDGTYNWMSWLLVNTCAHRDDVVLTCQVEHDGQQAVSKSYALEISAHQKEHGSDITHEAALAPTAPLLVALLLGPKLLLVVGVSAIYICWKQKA
Kind of experiment: cell based binding FACS on HEK293-SIRPβ cells, MFI.

The target of experiment [9] is T1, full length human SIRPγ endogenously …. Kind of experiment: cell based binding FACS on Jurkat cells (endogenous human SIRPγ), MFI.
Experiment [10] has as its target T4, full length human SIRPα on cell …. Kind of experiment: cell based binding FACS on 293F cells expressing human SIRPα, MFI.
The target of experiment [11] is human SIRPα-V8-his protein (human, UniProt P78324 31-370, limits assumed). Put plainly: indirect ELISA on coated human SIRPα-V8-his, OD(450-630).
Chain of human SIRPα-V8-his protein (P78324 other isoform, or with tags, fused parts or gaps limits assumed): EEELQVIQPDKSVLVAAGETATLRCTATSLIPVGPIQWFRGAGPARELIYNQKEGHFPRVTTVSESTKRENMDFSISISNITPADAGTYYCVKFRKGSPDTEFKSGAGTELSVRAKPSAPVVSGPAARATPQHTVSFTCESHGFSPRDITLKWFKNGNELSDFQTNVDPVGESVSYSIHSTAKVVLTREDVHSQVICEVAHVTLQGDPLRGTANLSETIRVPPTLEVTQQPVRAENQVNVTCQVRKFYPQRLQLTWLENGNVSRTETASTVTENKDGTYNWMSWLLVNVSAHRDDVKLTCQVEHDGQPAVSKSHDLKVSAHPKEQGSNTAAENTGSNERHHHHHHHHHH
The target of experiment [12] is T7, human FcRn protein (Cat #FCM-H5286, Acro biosystems Inc.) (human, UniProt P55899 24-297; P61769 21-119). Put plainly: SPR (Biacore); human FcRn covalently linked to CM5 chip, antibody flowed from 62.5 µg/ml; pH 7.4. A general note: In SPR one partner is held on a chip, and binding of the other changes the refractive index at the surface.
T7 sequence (P55899 24-297 limits assumed, chain 1 of 2): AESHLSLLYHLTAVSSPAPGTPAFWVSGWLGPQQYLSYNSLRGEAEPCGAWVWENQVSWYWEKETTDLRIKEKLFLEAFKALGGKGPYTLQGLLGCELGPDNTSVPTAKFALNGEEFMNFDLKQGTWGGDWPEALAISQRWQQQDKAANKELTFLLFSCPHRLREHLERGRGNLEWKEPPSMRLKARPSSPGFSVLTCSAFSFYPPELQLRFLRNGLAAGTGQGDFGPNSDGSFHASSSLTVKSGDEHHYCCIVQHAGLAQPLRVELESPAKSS
T7 sequence (P61769 21-119 limits assumed, chain 2 of 2): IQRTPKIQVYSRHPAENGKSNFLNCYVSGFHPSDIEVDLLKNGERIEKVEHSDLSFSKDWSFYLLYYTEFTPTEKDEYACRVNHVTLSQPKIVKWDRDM
Experiment [13] concerns the target T2, human SIRPα-his protein. Kind of experiment: SPR (Biacore T200); antibody captured on Protein A chip, human SIRPα-his flowed from 200 nM; 1:1 Langmuir fit.
Experiment [14] concerns the target T4, full length human SIRPα on cell …. Kind of experiment: cell based blocking FACS on 293F-SIRPα cells; blocked ligand: human CD47 protein (CD47-Fc), MFI.
For another experiment, the target named is T8, mouse SIRPα-his (mouse, UniProt P97797 35-363, limits assumed).
T8 chain: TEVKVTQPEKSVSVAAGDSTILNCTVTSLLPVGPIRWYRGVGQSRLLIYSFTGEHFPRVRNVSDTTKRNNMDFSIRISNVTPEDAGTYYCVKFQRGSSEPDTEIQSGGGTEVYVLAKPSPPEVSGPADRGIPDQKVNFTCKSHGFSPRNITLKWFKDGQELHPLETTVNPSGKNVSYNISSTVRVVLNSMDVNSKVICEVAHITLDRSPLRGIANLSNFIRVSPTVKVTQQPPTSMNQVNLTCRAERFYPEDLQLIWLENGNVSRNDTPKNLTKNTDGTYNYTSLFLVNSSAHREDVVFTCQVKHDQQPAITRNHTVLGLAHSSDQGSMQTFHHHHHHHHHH
Put plainly: indirect ELISA on coated mouse SIRPα-his, OD(450-630).

The target in another experiment is human SIRPγ-his protein (human, UniProt Q9P1W8 29-360, limits assumed). Put plainly: SPR (Biacore T200), antibody captured on Protein A chip, human SIRPγ-his flowed.
Chain of human SIRPγ-his protein (Q9P1W8 29-360 limits assumed): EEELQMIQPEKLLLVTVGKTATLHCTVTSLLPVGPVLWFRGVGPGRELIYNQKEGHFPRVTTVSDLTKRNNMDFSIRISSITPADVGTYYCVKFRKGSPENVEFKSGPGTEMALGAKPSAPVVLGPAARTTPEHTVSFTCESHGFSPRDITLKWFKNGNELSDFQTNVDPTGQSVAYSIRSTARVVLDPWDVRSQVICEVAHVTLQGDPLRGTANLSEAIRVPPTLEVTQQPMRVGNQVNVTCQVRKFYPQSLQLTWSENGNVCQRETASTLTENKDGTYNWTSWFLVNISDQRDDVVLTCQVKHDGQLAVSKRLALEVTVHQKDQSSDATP
The target in experiment [15] is human SIRPα protein (soluble, used on 293F-CD47 cells) (human, UniProt P78324 31-370, limits assumed). Kind of experiment: cell based blocking FACS on 293F-CD47 cells; soluble human SIRPα protein blocked from binding cell surface human CD47, MFI.
Chain of human SIRPα protein (soluble, used on 293F-CD47 cells) (P78324 31-370 limits assumed): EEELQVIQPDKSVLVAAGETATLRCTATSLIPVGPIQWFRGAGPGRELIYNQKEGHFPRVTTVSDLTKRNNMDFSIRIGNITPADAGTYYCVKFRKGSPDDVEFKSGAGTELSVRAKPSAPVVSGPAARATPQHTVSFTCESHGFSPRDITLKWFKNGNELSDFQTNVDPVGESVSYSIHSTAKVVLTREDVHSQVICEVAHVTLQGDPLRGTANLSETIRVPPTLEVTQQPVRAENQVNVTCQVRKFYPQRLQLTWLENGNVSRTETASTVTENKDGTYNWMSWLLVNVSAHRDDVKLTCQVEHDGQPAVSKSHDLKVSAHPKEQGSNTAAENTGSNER
Experiment [16] addresses human SIRPα-isoform 2-his protein (human). Put plainly: indirect ELISA on coated human SIRPα-isoform 2-his, OD(450-630). This is another data set of the same source.
Experiment [17] concerns the target T6, full length human SIRPβ on cell …. Put plainly: cell based binding FACS on 293F cells expressing human SIRPβ, MFI.
Experiment [18] addresses T3, cynomolgus SIRPα-his protein. Kind of experiment: SPR (Biacore T200); antibody captured on Protein A chip, cynomolgus SIRPα-his flowed from 200 nM; 1:1 Langmuir fit.
The target is the same in experiment [19]. Kind of experiment: indirect ELISA on coated cynomolgus SIRPα-his, OD(450-630).
Experiment [20] has as its target T7, human FcRn protein (Cat #FCM-H5286, …). Put plainly: SPR (Biacore); human FcRn covalently linked to CM5 chip, antibody flowed from 62.5 µg/ml; pH 6.0.
Another experiment concerns the target human SIRPβ-his protein (human, UniProt O00241 30-371). Put plainly: SPR (Biacore T200), antibody captured on Protein A chip, human SIRPβ-his flowed.
Experiment [21] has as its target T7, human FcRn protein (Cat #FCM-H5286, …). Put plainly: SPR (Biacore); human FcRn covalently linked to CM5 chip, antibody flowed from 62.5 µg/ml; pH 6.0; pH 6.0.
The target of experiment [22] is T3, cynomolgus SIRPα-his protein. Put plainly: indirect ELISA on coated cynomolgus SIRPα-his, OD(450-630).
In experiment [23] the target is T6, full length human SIRPβ on cell …. Put plainly: cell based binding FACS on HEK293-SIRPβ cells, MFI; plateau at MFI about 1300.

Like-named read-outs stand apart in the source and are kept apart here.

Chain of human SIRPα-isoform 2-his protein (human) (chain, as listed by the source limits assumed): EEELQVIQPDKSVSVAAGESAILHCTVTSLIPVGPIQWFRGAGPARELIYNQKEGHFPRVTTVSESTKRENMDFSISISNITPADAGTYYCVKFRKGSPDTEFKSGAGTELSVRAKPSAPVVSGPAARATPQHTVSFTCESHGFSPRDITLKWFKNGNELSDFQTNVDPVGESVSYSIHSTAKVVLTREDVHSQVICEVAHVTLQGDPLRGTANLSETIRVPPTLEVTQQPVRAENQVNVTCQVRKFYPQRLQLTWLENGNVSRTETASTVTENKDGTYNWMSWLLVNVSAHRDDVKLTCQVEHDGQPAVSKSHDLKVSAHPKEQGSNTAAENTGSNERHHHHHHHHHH
T1 sequence (Q9P1W8 29-387): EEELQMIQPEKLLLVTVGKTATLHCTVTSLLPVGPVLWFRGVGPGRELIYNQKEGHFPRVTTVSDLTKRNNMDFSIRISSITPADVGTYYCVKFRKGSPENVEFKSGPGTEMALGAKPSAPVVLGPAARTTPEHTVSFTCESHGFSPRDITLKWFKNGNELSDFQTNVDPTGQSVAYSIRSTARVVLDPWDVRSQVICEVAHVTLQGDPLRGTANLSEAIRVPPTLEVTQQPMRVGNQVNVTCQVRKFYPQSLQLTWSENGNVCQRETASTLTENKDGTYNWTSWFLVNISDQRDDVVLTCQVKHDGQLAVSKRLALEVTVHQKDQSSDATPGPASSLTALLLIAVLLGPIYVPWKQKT
Chain of human SIRPβ-his protein (O00241 other isoform, or with tags, fused parts or gaps limits assumed): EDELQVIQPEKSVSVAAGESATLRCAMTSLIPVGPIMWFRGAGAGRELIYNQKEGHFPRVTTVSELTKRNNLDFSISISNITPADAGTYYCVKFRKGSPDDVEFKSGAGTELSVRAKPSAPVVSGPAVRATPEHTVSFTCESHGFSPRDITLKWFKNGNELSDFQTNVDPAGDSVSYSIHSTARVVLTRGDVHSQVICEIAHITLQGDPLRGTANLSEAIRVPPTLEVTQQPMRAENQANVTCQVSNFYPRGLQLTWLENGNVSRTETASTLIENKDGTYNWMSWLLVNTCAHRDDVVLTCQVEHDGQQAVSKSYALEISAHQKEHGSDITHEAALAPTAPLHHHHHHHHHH
T5 sequence (chain, as listed by the source limits assumed): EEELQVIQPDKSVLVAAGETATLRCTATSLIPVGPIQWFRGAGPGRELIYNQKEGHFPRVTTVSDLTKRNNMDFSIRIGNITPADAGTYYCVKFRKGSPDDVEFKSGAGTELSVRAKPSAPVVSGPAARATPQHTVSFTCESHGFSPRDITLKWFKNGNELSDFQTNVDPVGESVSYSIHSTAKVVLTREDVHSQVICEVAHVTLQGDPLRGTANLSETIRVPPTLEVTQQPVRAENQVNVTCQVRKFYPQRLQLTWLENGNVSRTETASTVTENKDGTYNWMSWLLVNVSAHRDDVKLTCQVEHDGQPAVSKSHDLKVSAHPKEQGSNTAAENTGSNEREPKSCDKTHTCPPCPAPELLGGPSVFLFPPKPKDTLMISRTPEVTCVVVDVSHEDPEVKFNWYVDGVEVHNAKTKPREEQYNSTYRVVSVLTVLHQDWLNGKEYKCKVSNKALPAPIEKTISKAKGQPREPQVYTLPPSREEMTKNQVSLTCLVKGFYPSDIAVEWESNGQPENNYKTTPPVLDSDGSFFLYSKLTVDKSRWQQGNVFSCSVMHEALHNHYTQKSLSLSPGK

B1: E1F1B1C3 (antibody, V domains shown)
VH: QVQLVQSGAEVKKPGASVKVSCKASGYTFTSNAMHWVRQVPGQGLEWMGWIKAGNGEIKYSQKFQGRVTITRDTSATTAYMELSSLRSEDTAVYYCARGDYYYYYMDVWGKGTTVTVSS
VL: DIQVTQSPSSLSASVGDRVTITCRASQSISDFLNWYQQKPGKAPKLLIHAASSLQNGVPSRFSGSGSGTDFSLTINSLQPEDFATYYCQQSYSTPLSFGGGTKVEIK
As for B1, the EC50 in experiment [1] was determined as 0.105 nM; in experiment [2] it was 106 nM; in experiment [4], 48.1 nM; in experiment [6], 0.0491 nM; in experiment [7], 0.303 nM; in [8], 0.217 nM. Also, the IC50 with human SIRPα-his protein [3] was 2.13 nM; in experiment [5] it was 0.146 nM.

B2: E1H10B7-CDRV1-IgG1 (YTE) (antibody)
heavy: QVQLVQSGAEVKKPGASVKVSCKASGYTFTSYAMQWVRQAPGQRLEWMGWIIAGNADTKYSQNFQDRVTLTRDTSANTAYMDLSGLRSEDTAVYYCARGSGFSGYGYFDKWGQGTLVTVSSASTKGPSVFPLAPSSKSTSGGTAALGCLVKDYFPEPVTVSWNSGALTSGVHTFPAVLQSSGLYSLSSVVTVPSSSLGTQTYICNVNHKPSNTKVDKKVEPKSCDKTHTCPPCPAPEAQGGPSVFLFPPKPKDTLYITREPEVTCVVVDVSHEDPEVKFNWYVDGVEVHNAKTKPREEQYNSTYRVVSVLTVLHQDWLNGKEYKCQVSNKALPAPIEKTISKAKGQPREPQVYTLPPSRDELTKNQVSLTCLVKGFYPSDIAVEWESNGQPENNYKTTPPVLDSDGSFFLYSKLTVDKSRWQQGNVFSCSVMHEALHNHYTQKSLSLSPG
light: DIQMTQSPSSLSASVGDRVTITCRASHSISSYLNWYQQKPGKVPKLLIYASSSLQSGVPSRFSGSGSGTDFTLIISSLQPEDFATYYCQQSHSIPLTFGGGTKVEIKRTVAAPSVFIFPPSDEQLKSGTASVVCLLNNFYPREAKVQWKVDNALQSGNSQESVTEQDSKDSTYSLSSTLTLSKADYEKHKVYACEVTHQGLSSPVTKSFNRGEC
As to B2, the binding result in experiment [9] is “no binding (tested: ~67 nM)”; with mouse SIRPα-his, “no binding (tested: ~67 nM)”; in the experiment with human SIRPγ-his protein, “no binding (tested: antigen starting at 200 nM)”; with human SIRPβ-his protein, “no binding”. Also, the EC50 in experiment [10] worked out at 0.956 nM; in experiment [11], 0.141 nM; in [16] it was 0.173 nM; in experiment [17], 1.47 nM; in experiment [19], 0.209 nM. The Kd is 129 nM in [12], 14.6 nM in the experiment with human SIRPα-his protein [13], 553 nM in experiment [18] and 28.8 nM in experiment [20]. The koff amounted to 0.00188 s⁻¹ with human SIRPα-his protein [13] and 0.0146 s⁻¹ in experiment [18]. In addition, the association rate constant (kon) worked out at 129000 M⁻¹ s⁻¹ with human SIRPα-his protein [13] and 26400 M⁻¹ s⁻¹ in [18]. For the same molecule, the IC50 in experiment [14] came out at 2.62 nM; in [15] it was 0.368 nM.

B3: E1H10B7-CDRV1-IgG1 (antibody)
heavy: not shown
light: B2 light
As for B3, the binding result is recorded as “no binding (tested: ~67 nM)” in [9], “no binding (tested: ~67 nM)” with mouse SIRPα-his, “no binding (tested: antigen starting at 200 nM)” with human SIRPγ-his protein and “no binding” in the experiment with human SIRPβ-his protein. Moreover, the 50% effective concentration (EC50) was 0.973 nM in [10]; 0.151 nM in experiment [11]; 0.184 nM in experiment [16]; 1.23 nM in [17]; 0.224 nM in experiment [19]. The Kd stood at 8.78 nM with human SIRPα-his protein [13], 94.1 nM in experiment [21] and 376 nM in [18]. Besides, the dissociation rate constant (koff) with human SIRPα-his protein [13] turned out to be 0.00118 s⁻¹; in experiment [18] it was 0.0132 s⁻¹. Further, the figures for the kon (with human SIRPα-his protein [13]; in [18]) were 134000 M⁻¹ s⁻¹ and 35000 M⁻¹ s⁻¹, respectively. For the same molecule, the results for the IC50 in [14] and in experiment [15] were 2.3 nM and 0.347 nM, respectively.

B4: E1D5E1F1 (antibody, V domains shown)
VH: QVQLVQSGAEVKKPGASVKVSCKASGYTFTSFAMQWVRRAPGQRLEWMGWIIAGNGDTKYSQNFQDRVTLTRDTSANTAYMDLSGLRSEDTAVYYCARGSGFSGYGYFDKWGQGTLVTVSS
VL: DIQMTQSPSSLSASVGDRVTITCRASHSISSYLNWYQQKPGKVPKLLIYASSSLQSGVPSRFSGNGSGTDFTLIISSLQPEDFATYYCQQSHSIPLTFGGGTKVEIK
notes: Purified from a hybridoma of AceMouse mice: human heavy and light chain variable regions with mouse constant regions
In the case of B4, the EC50 in experiment [1] turned out to be 0.119 nM; in experiment [2], 0.63 nM; in experiment [22], 0.094 nM; in experiment [6] it was 0.0715 nM; in [7] it was 0.927 nM; in experiment [23], 0.738 nM. The IC50 in the experiment with human SIRPα-his protein [3] came to 2.17 nM; in experiment [5], 0.706 nM.
